The values below come from patent US10654917B2, “Antibody molecules and peptide delivery systems for use in alzheimer's disease and related disorders” (TECHNOPHAGE, INVESTIGAÇĀO E DESENVOLVIMENTO EM …, priority 2015, dated 2020).

Data set [1] in a line: Features of peptides: isoelectric point, charge. The data set is classed as physicochemical. To be noted: original peptide. From the text: Table 7 lists each peptide's name, isoelectric point (PI), charge (number of positive residues), calculated mass (in Da), and ion found; as well as the name, calculated mass, and found ion for the corresponding conjugate; and also retention times in HPLC and the partition coefficient (log Po/w). These values allowed the determination of the hydrophilic nature of peptides, where pepH1 and pepH4 were identified as the most hydrophilic peptides.

For data set [2], the system named is in vitro model of the BBB (bEnd3 cells). As to the kind of experiment: Transmigration of radiolabelled peptides across in vitro BBB model. Type of data set: in vitro ADME. Here is the method:
Using the same in vitro model of the BBB described above, peptides labelled with technetium and gallium were tested for the ability to cross endothelial barrier. For each peptide, bEnd3 cells cultured on “tissue culture inserts” were incubated with 5 ρCimL^−1-labelled peptide for different incubation times: 15 min, 5 h and 24 h. As a control, the model without cells was used (Control no cells) or (Filters) and compared to models with cells (BBB) or (Cells).
FIGS. 21A-21F show the percent activity of the radioisotope technetium-labelled peptides at the apex and base after 5 hours of incubation with the in vitro model described above, using the BBB-model or no cells (as a control); and values were obtained from two independent assays. […] Moreover, the results indicated promising candidates. Specifically, for each of pepH1 and pepH3, there was an overpass of 50% in the control, compared with only 20% in the presence of a cell barrier. The translocation of pepH2 was not observed in either the control nor in the BBB model.
Results for the incubations of 15 minutes, 5 hours, and 24 hours are shown together in FIGS. 22A-22F. That is, FIGS. 22A-22F show the percent activity of the radioisotope technetium-labelled peptides at the apex and base after 15 minutes, 5 hours, and 24 hours of incubation with the in vitro model described above, using the BBB-model or no cells (as a control); and values were obtained from two independent assays. Differences again were observed, confirming the integrity of the barrier, as well as identifying peptides that crossed the barrier. […] PepR′ thus was excluded from further tests.
(§1) Table 9 summarizes results regarding uptake (internalization) and cellular interaction, as well as transmigration across an in vitro model for BBB, for peptides labelled with technetium and gallium, after 15 minutes, 5 hours, and 24-hours of incubation, based on percent recovery of radiopeptide. The Table lists the peptides, providing each peptide's name, % BBB transmigration, % cellular interaction, and % internalized, each after […], 5 hours, and 24 hours of incubation.

Data set [3] has as its system bEnd3 cells. As to the kind of experiment: Uptake test: cellular interaction (acid wash) and internalization (lysate). The data set is classed as cell-based. On the procedure: In addition to testing models of BBB, an uptake test was performed to determine the internalizing ability of the candidate peptides. BEnd3 cells were cultured in 24 well plates. At each time point, the medium containing the peptide, which had not interacted with the cells, was collected. In the next step, the cells were washed with an acidic buffer that releases peptides more strongly bound to the cell membrane (sample acid wash). Finally, the cells were lysed to release internalized peptides and to quantify the activity inside the cells. Results are showing in FIGS. 23A-23E.
FIGS. 23A-23E show percent activity of the radioisotope technetium-labelled peptides in the media, wash buffer (acid wash) and lysate, after 15 minutes, 5 hours, and 24 hours of incubation with bEnd3 cells; and values were obtained from two independent assays. […] PepM′, as well as showing high transmigration (about 50%), also appeared to become internalized and accumulated within the cells (about 13% of radioactivity in the lysate).
as §1

In data set [4] the test system is bEnd3 cells. As to the kind of experiment: MTT cell viability assay. The data set is classed as cell-based. As to conditions: for effect on cell viability: 0.1-100 μM (pepM′ 0.1-50 μM), 24 hours; for cell death: concentration below 40 μM, peptide in DMSO. On the procedure:
To test possible toxicity of selected peptides to BBB cells, 5×10^4 bEnd3 cells were cultured in 96-well plates, at 100 μL/well, and incubated for 24 hours. The peptides then were added at concentrations of 0.1-100 μM, with the exception of pepM′ (which was added at concentrations of 0.1-50 μM). As a control providing 100% of viability, a well with serum-free media was included.
After 24 hours of incubation, a MTT assay was performed, which is a colorimetric assay for assessing cell metabolic activity. A MTT solution at 5 mg/mL in PBS was added to each well and incubated for 2 hours. After this period, the solution was removed and DMSO added to solubilize violet crystals formed. Absorbance was measured at 540 nm. The viability percentage [Absorbancepeptide-treated cells/Absorbanceuntreated-cells)*100] was calculated and IC50 values were calculated from three independent assays.
As FIGS. 24A-24E show, the selected peptides have no effect on cell viability, specifically, there was no observable nor measurable effect using the assay described.

The nature of data set [5]: Biodistribution of technetium-labelled peptides. The data set is classed as in vivo, CD1 mice. Here is the method:
To evaluate the capacity to cross the BBB in vivo, the selected peptides, pepH1 and pepH3, were analyzed for biodistribution in CD1 mice. The peptides were labelled with technetium at a final concentration of 8.5×10^−5 M and diluted in PBS. CD1 mice were injected (iv injection, tail vein). The mice were sacrificed by cervical dislocation after 5 and 60 minutes of incubation. The tissues of interest were dissected and washed to remove excess blood, weighed, and measured for radioactivity. Technetium radioactivity of the different peptides was measured for different organs.
Initial results are presented in Table 11, where “% I.A. refers to the “% injected activity”, that is, the amount of radioactivity measured in a given organ compared to the total originally injected.
The biodistribution studies were repeated, using higher doses of each peptide, specifically, a one hundred fold increase, as well as using PepH2 as a negative control, and allowing incubation for 2 minutes and 60 minutes. Tissue biodistribution profile in percentage of injected radiopeptide activity per gram of tissue/organ was measured and results are presented in Table 12.

Details of data set [6]: species or system CD1 mice. As to conditions: mouse, in vivo. On the procedure: The different antibody-peptide constructs were used in biodistribution assays, and results compared with the biodistribution of the respective DEN2C peptides (pepH1, pepH2, pepH3, and pepM′, chemically synthesized). […] After expression and purification, the sdAbs and sdAb-peptide constructs were conjugated to technetium (^99Tc) and a biodistribution assay was performed, as previously described.
Tables 14-16 show the biodistribution of different anti-BAP42 sdAbs and constructs thereof with different peptides (“pepH3”).

[7] abbreviates: 99mTc, 24 hours, listed as PepHM′.

On to LVAFLRFLTIPPTAGILKRW [PepM′], for which, in data set [1], the “Charge (number of positive residues)” value amounted to 3. Moreover, in data set [1], the “PI (isoelectric point)” value was 12.0. The BBB transmigration result in data set [2] (99mTc, 24 hours) was “about 50%”; in data set [2] (setting [7]), 53.47 ± 3.1%; in data set [2] (99mTc, 24 hours, listed as pepM), about 50%; in data set [2] (GaCl3, 24 hours) it was 47.31 ± 1.2%. Also, the Cellular interaction is reported as 8.32 ± 1.9% with bEnd3 cells [3] (99mTc, 24 hours) and 2.23 ± 0.1% in the data set with bEnd3 cells [3] (GaCl3, 24 hours). The Internalization entry in the data set on bEnd3 cells [3] (99mTc, 24 hours) is given as “about 13%”; with bEnd3 cells [3] (setting [7]), 12.81 ± 2.0%; in the data set on bEnd3 cells [3] (GaCl3, 24 hours), 3.68 ± 0.0%. For the same molecule, in the data set with bEnd3 cells [4], the “effect on cell viability” value is “small decrease in viability”. For the same molecule, the cell death entry in the data set with bEnd3 cells [4] was “no cell death”.

On to KLFMALVAFLRFLT [PepH2], for which the “Charge (number of positive residues)” value in data set [1] was 2. Also, the “PI (isoelectric point)” value in data set [1] amounted to 11. Moreover, the BBB transmigration in data set [2] (99mTc, 0.25 hours) is listed as 0.79 ± 0.7%; in data set [2] (99mTc, 5 hours), 5.21 ± 3.3%; in data set [2] (99mTc, 5 hours, listed as pepH2), “not observed”; in data set [2] (99mTc, 24 hours), 9.32 ± 2.5%; in data set [2] (99mTc, 24 hours, listed as pepH2), 9%; in data set [2] (GaCl3, 0.25 hours), 0.33 ± 0.1%. Besides, the BBB transmigration in data set [2] (GaCl3, 5 hours) is on record as 4.06 ± 0.3%; in data set [2] (GaCl3, 24 hours) it was 13.51 ± 0.7%. The Cellular interaction was 1.60 ± 0.3% in the data set on bEnd3 cells [3] (99mTc, 0.25 hours); 5.95 ± 3.0% with bEnd3 cells [3] (99mTc, 5 hours); 2.20 ± 0.4% with bEnd3 cells [3] (99mTc, 24 hours); 0.77 ± 0.1% in the data set on bEnd3 cells [3] (GaCl3, 0.25 hours); 1.48 ± 0.1% in the data set on bEnd3 cells [3] (GaCl3, 5 hours); 1.16 ± 0.1% in the data set with bEnd3 cells [3] (GaCl3, 24 hours). In addition, the Internalization in the data set on bEnd3 cells [3] (99mTc, 0.25 hours) was 2.15 ± 1.2%; with bEnd3 cells [3] (99mTc, 5 hours), 24.8 ± 2.0%; in the data set on bEnd3 cells [3] (GaCl3, 0.25 hours) it was 0.84 ± 0.1%; in the data set with bEnd3 cells [3] (GaCl3, 5 hours) it was 6.97 ± 0.3%; in the data set with bEnd3 cells [3] (GaCl3, 24 hours), 9.24 ± 1.2%. In addition, the “effect on cell viability” value in the data set on bEnd3 cells [4] was “small decrease in viability”. In addition, the cell death result in the data set on bEnd3 cells [4] was “no cell death”. In data set [5] (80 μg, after 60 minutes), the “radioactivity levels in the brain” value is listed as 0.2%. In addition, the “radioactivity in the brain” value in data set [5] (140 μg (pepH1, pepH3) or 80 μg (pepH2), 2 min) stood at 0.37%. The same molecule registered an excreted in data set [5] (140 μg (pepH1, pepH3) or 80 μg (pepH2), after 60 min) of 12.7%. The brain uptake entry in data set [5] (after 2 min) is listed as “rapid brain uptake”. Besides, the brain washout entry in data set [5] (mouse, in vivo) is “brain washout was slower”.

With KEIGRMLNILNRRRR [PepR′], in data set [2] (99mTc, 24 hours), the BBB transmigration entry is listed as “more limited in crossing the barrier”.

As for KSKAINVLRGFRKEIGRMLNILN [PepH4], the “Charge (number of positive residues)” value in data set [1] is on record as 6. In data set [1], the “PI (isoelectric point)” value is on record as 11.7. For the same molecule, the BBB transmigration came to 3.30 ± 0.5% in data set [2] (99mTc, 0.25 hours); 30.08 ± 1.6% in data set [2] (99mTc, 5 hours); 0.93 ± 0.1% in data set [2] (GaCl3, 0.25 hours); 16.60 ± 1.1% in data set [2] (GaCl3, 5 hours); 60.79 ± 2.6% in data set [2] (GaCl3, 24 hours). In addition, the “where the radiopeptide is found in the uptake test (media, acid wash, lysate)” value with bEnd3 cells [3] (99mTc) is “mainly remained in the incubation medium”. Besides, the Cellular interaction was 2.06 ± 0.3% with bEnd3 cells [3] (99mTc, 0.25 hours); 10.10 ± 0.1% with bEnd3 cells [3] (99mTc, 5 hours); 10.23 ± 0.8% in the data set on bEnd3 cells [3] (99mTc, 24 hours); 4.06 ± 0.2% in the data set with bEnd3 cells [3] (GaCl3, 0.25 hours); 3.00 ± 0.1% in the data set on bEnd3 cells [3] (GaCl3, 5 hours); 3.82 ± 0.1% in the data set with bEnd3 cells [3] (GaCl3, 24 hours). Also, the Internalization is on record as 0.17 ± 0.0% with bEnd3 cells [3] (99mTc, 0.25 hours); 1.53 ± 0.0% with bEnd3 cells [3] (99mTc, 5 hours); 2.83 ± 0.2% with bEnd3 cells [3] (99mTc, 24 hours); 0.26 ± 0.0% in the data set on bEnd3 cells [3] (GaCl3, 0.25 hours); 0.78 ± 0.0% with bEnd3 cells [3] (GaCl3, 5 hours); 1.55 ± 0.1% in the data set on bEnd3 cells [3] (GaCl3, 24 hours).

B1: #27in: anti-BAP42 sdAb, SEQ ID NO: 4 (antibody, V domains shown)
VL: ELVLTQTPSSVSAAVGGTVTINCQASQSVSNRLAWYQQKPGQPPKLLIYGASRLESGVPSRFRGSGSGTEFTLTISGMKAEDAATYYCQSCYYSVGVTFGAGTNVEIK
Turning to B1, in data set [6], the “factor by which washout from the brain is slowed on linking to delivery peptide pepH3” value was “about 2” and the “factor of increase of presence in the brain on linking to delivery peptide pepH3” value is “about 6”.
